Measurements published in PMC6509359 (Molecular Cell, 2019).
Several values for one entry are separate records, joined by “and”; a condition that tells them apart may be missing. Identical values can stand only once.

Key:
[1] = biological target: the molecule itself; test: not stated; oligomeric state of the purified deletion construct, Figure S4F (legend not shown)
[2] = biological target: the molecule itself; test: cell-based or functional assay
[3] = biological target: the molecule itself; test: native gel or EMSA; native PAGE of lysate of untreated HEK293 cells, immunoblotting for the endogenous protein; recombinant USP25 tetramer and dimer fractions as size standard
[4] = biological target: the molecule itself; test: SEC-MALS; five-fold dilution series (1 mg/mL, 0.2 mg/mL, 0.04 mg/mL sample concentration)
[5] = biological target: the molecule itself; test: SAXS; SEC-SAXS, 45 μL at 3-12 mg/mL, Shodex KW-403, buffer E (20 mM Tris pH 8.0, 100 mM NaCl, 5 mM DTT); compared with curves calculated from the crystal structures
[6] = biological target: the molecule itself; test: SEC-MALS; 100 μL of 1-2 mg/mL protein on Superdex 200 10/300, 0.5 mL/min, PBS + 2 mM DTT
[7] = biological target: T1, ubiquitin-propargylamine, Ub(1-75)-PA (UniProt P0CG48 1-75, C-terminal propargylamine (PA) after residue 75); test: covalent reaction with the ubiquitin-propargylamine probe; 1.3 eq of His6-3C-Ub(1-75)-PA, 1–4 h at 4°C; complex purified over HisTrap by the probe's tag, 3C protease, gel filtration; details: both partners purified
T1 construct: ubiquitin residues 1-75, C-terminus carries propargylamine (reactive probe); reacts covalently with the DUB; the His6-3C tag was on the probe during the reaction and the HisTrap step and was cut off with 3C protease before gel filtration; also called Ub-PA; His6-3C-Ub(1-75)-PA; source: assembled as described previously (Gersch et al., 2017), > 95% purity by intact protein mass spectrometry; not …

[8] = biological target: the molecule itself; test: not stated; oligomeric states of purified orthologs and of full-length proteins, Figures S7A, S7B and S3J

B1: Human USP25 (157-Δ(465-535)-714) (domain or fragment)
chain: NPYDRKRQDKAPVGLKNVGNTCWFSAVIQSLFNLLEFRRLVLNYKPPSNAQDLPRNQKEHRNLPFMRELRYLFALLVGTKRKYVDPSRAVEILKDAFKSNDSQQQDVSEFTHKLLDWLEDAFQMKAEEETDEEKPKNPMVELFYGRFLAVGVLEGKKFENTEMFGQYPLQVNGFKDLHECLEAAMIEGEIESLHSENSGKSGQEHWFTELPPVLTFELSRFEFNQALGRPEKIHNKLEFPQVLYLDRYMHRNREITRIKREEIKRLKDYLTVLQQRLERYLSYGSGPKRFPLVDVLQYALEFASSKPVGSGSGSAPRHITEEELSVLESCLHRWRTEIENDTRDLQESISRIHRTIELMYSDKSMIQVPYRLHAVLVHEGQANAGHYWAYIFDHRESRWMKYNDIAVTKSSWEELVRDSFGGYRNASAYCLMYINDKAQFLIQEEFNKETGQPLVGIETLPPDLRDFVEEDNQRFEKELEEWDAQLAQKALQE
notes: USP25, human, residues 536-714; source: E. coli Rosetta2(DE3)pLacI, purified (HisTrap, 3C protease, Resource Q, size exclusion)
stoichiometry N [1]: 2 | Ub-KG-TAMRA cleavage activity against the tetrameric wild-type USP25 (157-714) [2]: 6 fold

B2: endogenous USP28 (enzyme, human (endogenous in HEK293), UniProt Q96RU2 1-1077, looked up)
chain: MTAELQQDDAAGAADGHGSSCQMLLNQLREITGIQDPSFLHEALKASNGDITQAVSLLTDERVKEPSQDTVATEPSEVEGSAANKEVLAKVIDLTHDNKDDLQAAIALSLLESPKIQADGRDLNRMHEATSAETKRSKRKRCEVWGENPNPNDWRRVDGWPVGLKNVGNTCWFSAVIQSLFQLPEFRRLVLSYSLPQNVLENCRSHTEKRNIMFMQELQYLFALMMGSNRKFVDPSAALDLLKGAFRSSEEQQQDVSEFTHKLLDWLEDAFQLAVNVNSPRNKSENPMVQLFYGTFLTEGVREGKPFCNNETFGQYPLQVNGYRNLDECLEGAMVEGDVELLPSDHSVKYGQERWFTKLPPVLTFELSRFEFNQSLGQPEKIHNKLEFPQIIYMDRYMYRSKELIRNKRECIRKLKEEIKILQQKLERYVKYGSGPARFPLPDMLKYVIEFASTKPASESCPPESDTHMTLPLSSVHCSVSDQTSKESTSTESSSQDVESTFSSPEDSLPKSKPLTSSRSSMEMPSQPAPRTVTDEEINFVKTCLQRWRSEIEQDIQDLKTCIASTTQTIEQMYCDPLLRQVPYRLHAVLVHEGQANAGHYWAYIYNQPRQSWLKYNDISVTESSWEEVERDSYGGLRNVSAYCLMYINDKLPYFNAEAAPTESDQMSEVEALSVELKHYIQEDNWRFEQEVEEWEEEQSCKIPQMESSTNSSSQDYSTSQEPSVASSHGVRCLSSEHAVIVKEQTAQAIANTARAYEKSGVEAALSEVMLSPAMQGVILAIAKARQTFDRDGSEAGLIKAFHEEYSRLYQLAKETPTSHSDPRLQHVLVYFFQNEAPKRVVERTLLEQFADKNLSYDERSISIMKVAQAKLKEIGPDDMNMEEYKKWHEDYSLFRKVSVYLLTGLELYQKGKYQEALSYLVYAYQSNAALLMKGPRRGVKESVIALYRRKCLLELNAKAASLFETNDDHSVTEGINVMNELIIPCIHLIINNDISKDDLDAIEVMRNHWCSYLGQDIAENLQLCLGEFLPRLLDPSAEIIVLKEPPTIRPNSPYDLCSRFAAVMESIQGVSTVTVK
notes: USP28, endogenous in untreated HEK293 cells; source: endogenous, HEK293 lysate
stoichiometry N [3]: 2

B3: Human USP25 (1-714) (domain or fragment, UniProt Q9UHP3 1-714, looked up)
chain: MTVEQNVLQQSAAQKHQQTFLNQLREITGINDTQILQQALKDSNGNLELAVAFLTAKNAKTPQQEETTYYQTALPGNDRYISVGSQADTNVIDLTGDDKDDLQRAIALSLAESNRAFRETGITDEEQAISRVLEASIAENKACLKRTPTEVWRDSRNPYDRKRQDKAPVGLKNVGNTCWFSAVIQSLFNLLEFRRLVLNYKPPSNAQDLPRNQKEHRNLPFMRELRYLFALLVGTKRKYVDPSRAVEILKDAFKSNDSQQQDVSEFTHKLLDWLEDAFQMKAEEETDEEKPKNPMVELFYGRFLAVGVLEGKKFENTEMFGQYPLQVNGFKDLHECLEAAMIEGEIESLHSENSGKSGQEHWFTELPPVLTFELSRFEFNQALGRPEKIHNKLEFPQVLYLDRYMHRNREITRIKREEIKRLKDYLTVLQQRLERYLSYGSGPKRFPLVDVLQYALEFASSKPVCTSPVDDIDASSPPSGSIPSQTLPSTTEQQGALSSELPSTSPSSVAAISSRSVIHKPFTQSRIPPDLPMHPAPRHITEEELSVLESCLHRWRTEIENDTRDLQESISRIHRTIELMYSDKSMIQVPYRLHAVLVHEGQANAGHYWAYIFDHRESRWMKYNDIAVTKSSWEELVRDSFGGYRNASAYCLMYINDKAQFLIQEEFNKETGQPLVGIETLPPDLRDFVEEDNQRFEKELEEWDAQLAQKALQE
notes: USP25, human, residues 1-714; tetrameric and dimeric species side by side; source: E. coli Rosetta2(DE3)pLacI, purified (HisTrap, 3C protease, Resource Q, size exclusion)
stoichiometry N [4]: 4 and 2

B4: Human USP25 (157-1055) (domain or fragment, UniProt Q9UHP3 157-1055, looked up)
chain: NPYDRKRQDKAPVGLKNVGNTCWFSAVIQSLFNLLEFRRLVLNYKPPSNAQDLPRNQKEHRNLPFMRELRYLFALLVGTKRKYVDPSRAVEILKDAFKSNDSQQQDVSEFTHKLLDWLEDAFQMKAEEETDEEKPKNPMVELFYGRFLAVGVLEGKKFENTEMFGQYPLQVNGFKDLHECLEAAMIEGEIESLHSENSGKSGQEHWFTELPPVLTFELSRFEFNQALGRPEKIHNKLEFPQVLYLDRYMHRNREITRIKREEIKRLKDYLTVLQQRLERYLSYGSGPKRFPLVDVLQYALEFASSKPVCTSPVDDIDASSPPSGSIPSQTLPSTTEQQGALSSELPSTSPSSVAAISSRSVIHKPFTQSRIPPDLPMHPAPRHITEEELSVLESCLHRWRTEIENDTRDLQESISRIHRTIELMYSDKSMIQVPYRLHAVLVHEGQANAGHYWAYIFDHRESRWMKYNDIAVTKSSWEELVRDSFGGYRNASAYCLMYINDKAQFLIQEEFNKETGQPLVGIETLPPDLRDFVEEDNQRFEKELEEWDAQLAQKALQEKLLASQKLRESETSVTTAQAAGDPEYLEQPSRSDFSKHLKEETIQIITKASHEHEDKSPETVLQSAIKLEYARLVKLAQEDTPPETDYRLHHVVVYFIQNQAPKKIIEKTLLEQFGDRNLSFDERCHNIMKVAQAKLEMIKPEEVNLEEYEEWHQDYRKFRETTMYLIIGLENFQRESYIDSLLFLICAYQNNKELLSKGLYRGHDEELISHYRRECLLKLNEQAAELFESGEDREVNNGLIIMNEFIVPFLPLLLVDEMEEKDILAVEDMRNRWCSYLGQEMEPHLQEKLTDFLPKLLDCSMEIKSFHEPPKLPSYSTHELCERFARIMLSLSRTPADGR
notes: source: E. coli Rosetta2(DE3)pLacI, purified (HisTrap, 3C protease, Resource Q, size exclusion)
stoichiometry N [4]: 4

B5: Human USP28 (149-703) (domain or fragment, UniProt Q96RU2 149-703, looked up)
chain: PNPNDWRRVDGWPVGLKNVGNTCWFSAVIQSLFQLPEFRRLVLSYSLPQNVLENCRSHTEKRNIMFMQELQYLFALMMGSNRKFVDPSAALDLLKGAFRSSEEQQQDVSEFTHKLLDWLEDAFQLAVNVNSPRNKSENPMVQLFYGTFLTEGVREGKPFCNNETFGQYPLQVNGYRNLDECLEGAMVEGDVELLPSDHSVKYGQERWFTKLPPVLTFELSRFEFNQSLGQPEKIHNKLEFPQIIYMDRYMYRSKELIRNKRECIRKLKEEIKILQQKLERYVKYGSGPARFPLPDMLKYVIEFASTKPASESCPPESDTHMTLPLSSVHCSVSDQTSKESTSTESSSQDVESTFSSPEDSLPKSKPLTSSRSSMEMPSQPAPRTVTDEEINFVKTCLQRWRSEIEQDIQDLKTCIASTTQTIEQMYCDPLLRQVPYRLHAVLVHEGQANAGHYWAYIYNQPRQSWLKYNDISVTESSWEEVERDSYGGLRNVSAYCLMYINDKLPYFNAEAAPTESDQMSEVEALSVELKHYIQEDNWRFEQEVEEWEEEQSCKI
notes: also called USP28 catalytic domain; source: E. coli Rosetta2(DE3)pLacI, purified (HisTrap, 3C protease, Resource Q, size exclusion)
stoichiometry N [5]: 2

B6: Human USP25 (157-720) (domain or fragment, UniProt Q9UHP3 157-720, looked up)
chain: NPYDRKRQDKAPVGLKNVGNTCWFSAVIQSLFNLLEFRRLVLNYKPPSNAQDLPRNQKEHRNLPFMRELRYLFALLVGTKRKYVDPSRAVEILKDAFKSNDSQQQDVSEFTHKLLDWLEDAFQMKAEEETDEEKPKNPMVELFYGRFLAVGVLEGKKFENTEMFGQYPLQVNGFKDLHECLEAAMIEGEIESLHSENSGKSGQEHWFTELPPVLTFELSRFEFNQALGRPEKIHNKLEFPQVLYLDRYMHRNREITRIKREEIKRLKDYLTVLQQRLERYLSYGSGPKRFPLVDVLQYALEFASSKPVCTSPVDDIDASSPPSGSIPSQTLPSTTEQQGALSSELPSTSPSSVAAISSRSVIHKPFTQSRIPPDLPMHPAPRHITEEELSVLESCLHRWRTEIENDTRDLQESISRIHRTIELMYSDKSMIQVPYRLHAVLVHEGQANAGHYWAYIFDHRESRWMKYNDIAVTKSSWEELVRDSFGGYRNASAYCLMYINDKAQFLIQEEFNKETGQPLVGIETLPPDLRDFVEEDNQRFEKELEEWDAQLAQKALQEKLLASQ
notes: also called USP25 catalytic domain; source: E. coli Rosetta2(DE3)pLacI, purified (HisTrap, 3C protease, Resource Q, size exclusion)
stoichiometry N [6]: 4 | binding result [7]: binds

B7: M. musculus USP25 (157-715) (domain or fragment, mouse (Mus musculus), UniProt P57080 157-715, looked up)
chain: NPYDRKRQEKAPVGLKNVGNTCWFSAVIQSLFNLLEFRRLVLNYKPPSNAQDLPRNQKEHRNLPFMRELRYLFALLVGTKRKYVDPSRAVEILKDAFKSNDSQQQDVSEFTHKLLDWLEDAFQMKAEEETDEEKPKNPMVELFYGRFLAMGVLEGKKFENTEMFGQYPLQVNGFKDLHECLEAAMIEGEIESLHSDNSGKSGQEHWFTELPPVLTFELSRFEFNQALGRPEKIHNKLEFPQVLYLDRYMHRNREITRIKREEIKRLKDYLTVLQQRLERYLSYGSGPKRFPLVDVLQYALEFASSKPVCTSPVDDIDASSSASGPLPSQSLPSTTEQQGPCASDLPGSSSPASGAALPLRSVIHKPFTQSRIPPDLPMHPAPRHITEEELCVLESCLHRWRTEIENDTRDLQESISRIHRTIELMYSDKSMIQVPYRLHAVLVHEGQANAGHYWAYIFDHRESRWMKYNDIAVTKSSWEELVRDSFGGYRNASAYCLMYIDDKAQFLIQEEFNKETGQALVGMETLPPDLRDFVEEDNQRFEKELEEWDTQLAQRSLQE
notes: also called USP25 catalytic domain from mouse; source: E. coli Rosetta2(DE3)pLacI, purified (HisTrap, 3C protease, Resource Q, size exclusion)
binding result [7]: binds | stoichiometry N [8]: 4
